Measurements from patent publication EP1073463B1.

Assays:
[1] = biological target: human CD3 on Jurkat cells (human) (UniProt P07766); assay: competition with 125I-UCHT1 on Jurkat cells, competitor at 1 nM
human FcR = assay: cell-based or functional assay
[2] = biological target: human CD3 on Jurkat cells (human) (UniProt P07766); assay: competition with 125I-UCHT1 on Jurkat cells, competitor at 100 nM
[3] = biological target: human CD3 on Jurkat cells (human) (UniProt P07766); assay: cell-based or functional assay
[4] = biological target: human CD3 on Jurkat cells (human) (UniProt P07766); assay: competition with 125I-UCHT1 on Jurkat cells, SP2/0 preparation at 100 nM
[5] = biological target: human CD3 on Jurkat cells (human) (UniProt P07766); assay: competition with 125I-UCHT1 on Jurkat cells, COS-7 preparation at 1 nM
[6] = biological target: human CD3 on Jurkat cells (human) (UniProt P07766); assay: competition with 125I-UCHT1 on Jurkat cells, SP2/0 preparation at 1 nM
[7] = biological target: human CD3 on Jurkat cells (human) (UniProt P07766); assay: competition with 125I-UCHT1 on Jurkat cells, COS-7 preparation at 100 nM

Sequence of UniProt P07766 (P07766 23-207): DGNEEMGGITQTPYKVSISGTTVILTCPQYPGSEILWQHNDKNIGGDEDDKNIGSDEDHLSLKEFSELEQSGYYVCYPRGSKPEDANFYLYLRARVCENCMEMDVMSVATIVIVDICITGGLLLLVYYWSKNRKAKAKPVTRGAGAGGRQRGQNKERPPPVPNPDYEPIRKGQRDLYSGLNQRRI

In the case of “UCHT1 monoclonal antibody (anti-human CD3)”, the % of 125I-UCHT1 bound to cells [1] is reported as 80%, the T-cell proliferation of human PBMCs ([3H]thymidine incorporation), concentration at peak (human FcR) is reported as 100 ng/mL and the T-cell proliferation of human PBMCs ([3H]thymidine incorporation), lowest active concentration (human FcR) is reported as 0.1 ng/mL. The % of 125I-UCHT1 bound to cells [2] was 0%.
Work on “sFv-DT390, anti-CD3 single-chain immunotoxin with truncated diphtheria toxin (from UniProt P00588 33-422)” yielded an IC50 (toxicity, inhibition of protein synthesis) [3] of 0.048 nM, a Protein synthesis (% of controls), Jurkat cells, 1 x 10^-10 M, no serum (% of controls) [3] of 18 and a potency relative to UCHT1-CRM9 (fold of UCHT1-CRM9 potency) [3] of 0.0625.
Substance “scUCHT1, chimeric anti-human CD3 single chain antibody (UCHT1 VL-linker-VH fused to human IgM Fc µCH2 to µCH4) (from UniProt P01871 106-453) (scFv)” has a % of 125I-UCHT1 bound to cells [4] of 0%, a % of 125I-UCHT1 bound to cells [5] of 80% and a % of 125I-UCHT1 bound to cells [6] of 80%. The % of 125I-UCHT1 bound to cells [7] was 0%.
